From patent US20240010680A1 (XIAMEN UNIVERSITY, published 2024)

target: T1, hACE2 purified protein (human (printed as hACE2), UniProt Q9BYF1 18-740); assay: SPR (Biacore T200), hACE2 amine-coupled to CM5 chip, peptide as analyte
T1 construct: also called CM5-hACE2 chip
T1 sequence (Q9BYF1 18-740 limits assumed): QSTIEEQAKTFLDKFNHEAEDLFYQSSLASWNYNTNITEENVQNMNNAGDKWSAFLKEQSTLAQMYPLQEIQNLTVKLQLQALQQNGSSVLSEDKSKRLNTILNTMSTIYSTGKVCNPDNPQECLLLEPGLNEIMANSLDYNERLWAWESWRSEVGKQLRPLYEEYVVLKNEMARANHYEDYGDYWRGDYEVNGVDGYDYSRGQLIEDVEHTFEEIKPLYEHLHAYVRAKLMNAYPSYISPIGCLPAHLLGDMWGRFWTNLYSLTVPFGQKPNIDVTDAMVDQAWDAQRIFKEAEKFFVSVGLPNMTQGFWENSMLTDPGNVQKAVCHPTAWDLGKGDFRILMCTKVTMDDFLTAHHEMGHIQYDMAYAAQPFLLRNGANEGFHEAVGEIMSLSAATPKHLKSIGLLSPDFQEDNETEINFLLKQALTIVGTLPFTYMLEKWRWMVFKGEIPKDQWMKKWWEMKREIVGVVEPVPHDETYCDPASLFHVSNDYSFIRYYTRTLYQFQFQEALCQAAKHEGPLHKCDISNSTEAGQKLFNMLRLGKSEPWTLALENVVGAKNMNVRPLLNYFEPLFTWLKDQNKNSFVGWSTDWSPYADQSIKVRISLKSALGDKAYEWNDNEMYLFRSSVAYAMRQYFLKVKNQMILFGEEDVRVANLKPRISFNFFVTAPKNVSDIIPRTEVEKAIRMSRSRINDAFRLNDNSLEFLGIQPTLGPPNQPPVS
Method: Specific Steps: [0031] a. The GE Biacore T200 is started, the Series S Sensor Chip CM5 is embedded into the GE Biacore T200, the PBS is degassed to obtain a degassed PBS, and the degassed PBS is used throughout the experiment; [0032] b. The NHS, the EDC, the ethanolamine, and the hACE2 (1 mg/mL) are placed on a feeding plate of the GE Biacore T200 according to volumes indicated by the GE Biacore T200 using Eppendorf (EP) tubes in sufficient quantities; [0033] c. […] A mobile solution (the degassed PBS) is closed, a command window is closed, and a report is served to obtain a CM5-hACE2 chip;
Specific Steps: [0038] a. Preparing different dilutions as samples for testing: the peptides in Table 1 to be tested at a concentration of 3 mmol/L (mM) are dissolved and sequentially diluted into different dilutions of 100 μmol/L (μM), 60 μM, 30 μM, 10 μM, 3 μM, 1 μM, 0.3 μM, and 0 using the PBS to obtain the samples. Each of the different dilutions is ensured to have a volume of no less than 400 μL and separately packaged on EP tubes. The samples are placed on a test plate of the GE Biacore T200, and the test plate is stuck in a test slot; [0039] b.

Question: With YKYKYL (also called YKYKYL; first peptide) [Peptide12] as the binder, how does the Kd read?
Answer: 21.4 µM

Question: With YRYRYL (also called YRYRYL; second peptide) [Peptide13] as the binder, how does the Kd read?
Answer: 25.3 µM

Question: YSYIQK (also called YSYIQK; third peptide) [Peptide21] was tested. Which Kd did it give?
Answer: 36.8 µM

Question: YTYIQK (also called YTYIQK) [Peptide23] was tested. Which Kd did it give?
Answer: 46.5 µM
